According to PMC4906797:

Test system: C/C=C/C=C/C(=O)CC(=O)SCCNC(C)=O
Assay: purified protein

“LovB (lovastatin nonaketide synthase) (Aspergillus terreus)” was tested. Which kcat did it give?
The kcat was 3.27 s⁻¹.
